Reference: US20200308267A1 (Boehringer Ingelheim, published 2020)

Target: T1, recombinant human VEGF165 (human, UniProt P15692-4 27-191, biotinylated (Sulfo-NHS-LC-Biotin) in the competition assays)
T1 construct: also called hVEGF165; rhVEGF165
Assay: Biacore, periplasmic extract, VEGF165 chip, two phase decay fit
Design: unit not given here
Description: Dissociation rates of inhibitory VHHs are analyzed on Biacore (Biacore T100 instrument, GE Healthcare). HBS-EP+ buffer is used as running buffer and experiments are performed at 25° C. […] After immobilization, surfaces are deactivated with 10 min injection of 1 M ethanolamine pH8.5. A reference surface is activated and deactivated with respectively EDC/NHS and ethanolamine. Periplasmic extracts of VHHs are injected at a 10-fold dilution in running buffer for 2 min at 45 μl/min and allowed to dissociate for 10 or 15 min. Between different samples, the surfaces are regenerated with regeneration buffer. Data are double referenced by subtraction of the curves on the reference channel and of a blank running buffer injection. […] is evaluated by fitting a two phase decay model in the Biacore T100 Evaluation software v2.0.1.

T1 sequence (P15692 other isoform, or with tags, fused parts or gaps limits assumed): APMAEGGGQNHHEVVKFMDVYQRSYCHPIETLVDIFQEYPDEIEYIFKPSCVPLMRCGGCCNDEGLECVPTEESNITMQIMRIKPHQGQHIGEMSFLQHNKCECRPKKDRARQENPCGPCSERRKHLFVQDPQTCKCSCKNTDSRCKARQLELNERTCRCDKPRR

Binder | kd(fast) | kd(slow)
VEGFBII23A03 (VHH, not shown: small tags and cut ends) VHH: EVQLVESGGGLVQPGDSLKLSCVASGRTFSSYSMGWFRQAQGKEREFVVAISSGGYIYDSVSLQGRFTISRDNTKNTVYLQTPSLKPEDTAVYYCAASRAYGSSRLRLADTYDYWGQGTQVTVSS | 0.015 | 3.2e-05
VEGFBII22E04 (VHH, not shown: small tags and cut ends) VHH: EVQLVESGGGLVQPGDSLKLSCVASGRTSSSYSMGWFRQAQGKEREFVVAISSGGSIYDSVSLQGRFTISRDNTKNTVYLQTPSLKPEDTAVYYCAASRAYASSRLRLADTYDYWGQGTQVTVSS | 0.018 | 0.00011
VEGFBII42F11 (VHH, not shown: small tags and cut ends) VHH: EVQLVESGGGLVQPGDSLKLSCVASGRTSSSYSVGWFRQAQGKEREFVVAISSGGYIYDSVSLQGRFTISRDNTKNTVYLQTPSLKPEDTAVYYCAASRAYGSSRLRLADTYDYWGQGTQVTVSS | 0.0091 | 0.0005
VEGFBII22A11 (VHH, not shown: small tags and cut ends) VHH: EVQLVESGGGLVQPGDSLKLSCAFSGRTFSSYSMAWFRQAQGKEREFVVAISSGGFIYDAVSLEGRFTISRDNTKNTVYLQTPSLKPEDTAVYYCAASRAYGSSRLRLADTYDYWGQGTQVTVSS | 0.022 | 4.7e-05
VEGFBII23A08 (VHH, not shown: small tags and cut ends) VHH: EVQLVESGGGLVQTGDSLRLSCVASGRTFSSYSMGWFRQAQGKEREFVVAISNGGYKYDSVSLEGRFTISRDNTKNTVYLQINSLKPEDTAVYYCAASRAYGSSRLRLADTYDYWGQGTQVTVSS | 0.013 | 5e-05
VEGFBII30C09 (VHH, not shown: small tags and cut ends) VHH: EVQLVESGGGLVQPGDSLKLSCIASGRTSSSYSMGWFRQAQGQEREFVVAISSGGYIYDSVSLQGRFTISRDNTKNTVYLQTPSLKPEDTAVYYCAASRAYGSSRLRLADTYDYWGQGTQVTVSS | 0.015 | 7.6e-05
VEGFBII41B05 (VHH, not shown: small tags and cut ends) VHH: EVQLVESGGGLVQPGGSLRLSCAFSGRTFSSYSMGWFRQAQGKEREFVVAISSGGFIYDAVSLEGRFTISRDNTKNTVYLQTPSLKPEDTAVYYCAASRAYGSSRLRLADTYDYWGQGTQVTVSS | 0.019 | 0.00012
VEGFBII23D11 (VHH, not shown: small tags and cut ends) VHH: EVQLVESGGGLVQPGDSLRLSCAFSGRTFSSYSMAWFRQAQGKEREFVVAISSGGFIYDAVSLEGRFTISRDNTKNTVYLQTPSLKPEDTAVYYCAASRAYGSSRLRLADTYDYWGQGTQVTVSS | 0.019 | 5.8e-05
VEGFBII42D05 (VHH, not shown: small tags and cut ends) VHH: EVQLVESGGGLVQPGDSLKLSCAFSGRTFSSYSMGWFRQAQGKEREFVVAISSSGGYIYDSVSLEGRFTISRDNTKNTVYLQTPSLKPEDTAVYYCAASRAYGSSRLRLADTYDYWGQGTQVTVSS | 0.033 | 0.00015
VEGFBII23A09 (VHH, not shown: small tags and cut ends) VHH: EVQLVESGGGLVQPGDSLKLSCAFSGRTFGSYSMGWFRQAQGKEREFVVAISSSGGYIYDSVSLEGRFTISRDNSKNTVYLQTPSLKPEDTAVYYCAASRAYGSSRLRLPDTYDYWGQGTQVTVSS | 0.027 | 4.6e-05
VEGFBII40H10 (VHH, not shown: small tags and cut ends) VHH: EVQLMESGGGLVQPGDSLKLSCAFSGRTFSSYSMGWFRQAQGKEREFVVAISSSGGYIYDSVSLEGRFTISRDNTKNTVYLQTPSLKPEDTADYYCAASRAYGSSRLRLADTYDYWGQGTQVTVSS | 0.014 | 0.00029
VEGFBII23F11 (VHH, not shown: small tags and cut ends) VHH: EVQLVESGGGLVQPGDSLKLSCAFSGRTFSSYSMGWFRQAQGKEREFVVAISSGGGYIYDSVSLEGRFTISRDNTKNTVYLQTPSLKPEDTADYYCAASRAYGSSRLRLADTYDYWGQGTQVTVSS | 0.027 | 0.00013
VEGFBII30E07 (VHH, not shown: small tags and cut ends) VHH: EVQLVESGGGLVQAGDSLRLSCAASGRTFSSYSMGWFRQAQGKEREFVVAISSSGNYKYDSVSLEGRFTISRDNTKNTVYLQINSLKPEDTAVYYCAASRAYGSSRLRLGDTYDYWGQGTRVTVSS | 0.017 | 0.00013
VEGFBII23G03 (VHH, not shown: small tags and cut ends) VHH: EVQLVESGGGLVQPGDSLKLSCAFSGRTFGSYSMGWFRQAQGKEREFVVAISSSGGYIYDSVSLEGRFTISRDNSKNTVYLQTPSLKPEDTAVYYCAASRAYGSSRLRLPGTYDYWGQGTQVTVSS | 0.028 | 8.6e-05
VEGFBII22A10 (VHH, not shown: small tags and cut ends) VHH: EVQLVESGGGLVQPGDSLKLSCAFSGRTFSSYSMGWFRQAQGKEREFVVAISSSGGYIYDSVSLEGRFTISRDNTKNTVYLQTPSLKPEDTADYYCAASRAYGSSRLRLADTYDYWGQGTQVTVSS | 0.037 | 4e-05
VEGFBII31C07 (VHH, not shown: small tags and cut ends) VHH: EVQLVESGGGLVQTGDSLRLSCAASGGTFSSYSMGWFRQAQGKEREFVVAISSSGGYIYDSVSLEGRFTISRDNTKNTVYLQTPSLKPEDTADYYCAASRAYGSSRLRLADTYDYWGQGTQVTVSS | 0.037 | 0.00015

Next, values leading:

kd(fast) | kd(slow) | Binder
0.013 | 3.8e-05 | VEGFBII27G07 (VHH, not shown: small tags and cut ends) VHH: EVQLVESGGGLVQPGDSLKLSCVASGRTSSSYSMGWFRQAQGQEREFVVAISSGGYIYDSVSLQGRFTISRDNTKNTVYLQTPSLKPEDTAVYYCAASRAYGSSRLRLADTYDYWGQGTQVTVSS
0.024 | 8.1e-05 | VEGFBII27D08 (VHH, not shown: small tags and cut ends) VHH: EVQLVESGGGLVQTGDSLRLSCAASGRTFSSYSMGWFRQAQGKEREFVVAISSGGYKYDSVSLEGRFTISRDNTQNTVYLQINSLKPEDTAVYYCAASRAYGSGRLRLADTYDYWGQGTQVTVSS
0.012 | 0.00027 | VEGFBII41G03 (VHH, not shown: small tags and cut ends) VHH: EVQLVESGGGLVQPGDSLKLSCAFSGRTFSSYSMAWFRQAQGKEREFVVAISSGGFIYDAVSLEGRFTISRENTKNTVYLQTPSLKPEDTAVYYCAASRAYGSSRLRLADTYDYWGQGTQVTVSS
0.014 | 8.5e-05 | VEGFBII62F02 (VHH, not shown: small tags and cut ends) VHH: EVQLVESGGGLVQPGDSLKLSCAFSGRTFSSYSMGWFRQAQGKEREFVVAIASGGYIYDAVSLEGRFTISRDNTKDTVYLQTPSLKPEDTAVYYCAASRAYGSSRLRLADTYDYWGQGTQVTVSS
0.0074 | 0.00017 | VEGFBII61A01 (VHH, not shown: small tags and cut ends) VHH: EVQLVESGGGLVQAGGSLRLSCAFSGRTFSSYSMGWFRQAQGKEREFVVAISSGGYKYDAVSLEGRFTISRDNTKNTVYLQTPSLKPEDTAVYYCAASRAYASSRLRLADTYDYWGQGTQVTVSS
0.012 | 9.8e-05 | VEGFBII40F02 (VHH, not shown: small tags and cut ends) VHH: EVQLVESGGGLVQPGDSLKLSCAFSGRTFSSYSMAWFRQAQGKEREFVVAISSGGFIYDAVSLEGRFTISRDNTKNTVYLQTPSLKPEGTAVYYCAASRAYGSSRLRLADTYDYWGQGTQVTVSS
0.015 | 6.9e-05 | VEGFBII23E05 (VHH, not shown: small tags and cut ends) VHH: EVQLVESEGGLVQPGDSLKLSCVASGRTSSSYSMGWFRQAQGKEREFVVAISSGGYIYDSVSLQGRFTISRDNTKNTVYLQTPSLKPEDTAVYYCAASRAYGSSRLRLADTYDYWGQGTQVTVSS
0.018 | 0.00032 | VEGFBII40G07 (VHH, not shown: small tags and cut ends) VHH: EVQLVESGGGLVQPGDSLKLSCAFSGRTFSSYSMGWFRQAQGKEREFVVAISSSGGYIYDSVSLEGRFTISRDNTKNAVYLQTPSLKPEDTADYYCAASRAYGSSRLRLADTYDYWGQGTQVTVSS
0.038 | 9e-05 | VEGFBII22B06 (VHH, not shown: small tags and cut ends) VHH: EVQLVESGGGLVQPGDSLKLSCAASGRTFSSYSMGWFRQAQGKEREFVVAISSSGGYIYDSVSLEGRFTISRDNTKNTVYLQTPSLKPEDTAVYYCAASRAYGSSRLRLADTYDYWGQGTQVTVSS
0.016 | 0.00013 | VEGFBII23F05 (VHH, not shown: small tags and cut ends) VHH: EVQLVESGGGLVQAGDSLRLSCAASGRTFSSYSMGWFRQAQGKEREFVVAISSSGNYKYDSVSLEGRFTISRDNTKNTVYLQINSLKPKDTAVYYCAASRAYGSSRLRLGDTYDYWGQGTQVTVSS
0.015 | 7.8e-05 | VEGFBII22B07 (VHH, not shown: small tags and cut ends) VHH: EVQLVESGGGLVQAGDSLRLSCAASGRTFSSYSMGWFRQAQGKEREFVVAISSSGNYKYDSVSLEGRFTISRDNTKNTVYLQINSLKPEDTAVYYCAASRAYGSSRLRLGDTYDYWGQGTQVTVSS
0.019 | 0.00024 | VEGFBII39E02 (VHH, not shown: small tags and cut ends) VHH: EVQLVESGGGLVQPGDPLKLSCAFSGRTFSSYSMGWFRQAQGKEREFVVAISSSGGYIYDSVSLEGRFTISRDNTKNTVYLQTPSLKPEDTADYYCAASRAYGSSRLRLADTYDYWGQGTQVTVSS
0.014 | 0.00074 | VEGFBII39G04 (VHH, not shown: small tags and cut ends) VHH: EVPLVESGGGLVQAGDSLRLSCAASGRTFSSYSMGWFRQAQGKEREFVVAISSSGNYKYDSASLEGRFTISRDNTKNTVYLQINSLKPEDTAVYYCAASRAYGSSRLRLGDTYDYWGQGTQVTVSS
